First the molecules themselves.
B1: HS-Cnl1 (natural protein, S. cerevisiae, UniProt Q06333 1-122, looked up)
chain: MQDNSSHSRESASAGDDPLGIDKLTVDYDYLLYKMRDYVQSIQLDTTELCKKQNEVMVNGIIENTIDKNIAKFKELLEKCDTLENHYEMLNQLAIITDTFKERIAEAVNNYNSLKKGASKSK
B2: Vab2-GST (natural protein)
chain: MVADLTKGILKWKSRIEFDAVGSSSYYEELKGLPPLASHKKLTQAAIFNSTKYELLQVKKDILSIYEVVSRDIDEERNQMQQIELQLKKSLKKVEHSYKNVLKQRASTNCINGNDRLLANAEKKIGSLNEELACVNDIVSDIVNNLTALNANLPKKAQLLKDDSINVAHYPLLFDFLHKSCPKSIIATSEASIHENASPSPLLEHDELPAESINSFYGENELQSDSLAPLQTHDDNISSCKKILPPKFNTTSGPSIETNFENISADGLTYTKCSLKNSISLT

Holding throughout (assay): pull-down
In one assay the target is T1, GST-Kxd1 (S. cerevisiae, UniProt P53158 1-218).
T1 sequence (looked up): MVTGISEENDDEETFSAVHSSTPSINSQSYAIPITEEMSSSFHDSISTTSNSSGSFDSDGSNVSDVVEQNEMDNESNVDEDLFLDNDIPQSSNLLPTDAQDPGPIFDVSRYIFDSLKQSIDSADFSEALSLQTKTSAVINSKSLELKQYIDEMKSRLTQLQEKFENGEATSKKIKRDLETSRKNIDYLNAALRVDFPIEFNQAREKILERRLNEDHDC

The next assay deals with HS-Snn1 (S. cerevisiae, UniProt P48232 1-102).
Another assay addresses GST-Snn1 (S. cerevisiae, UniProt P48232 1-102).
In the assay “Vab2-GST” the target is B2.
The assay “HS-Cnl1” deals with B1.

The source of these data is paper PMC4571306 (Molecular Biology of the Cell, 2015).

As for B1, in the assay with GST-Kxd1, the binding result is given as “binds”. As for B2, the binding result with HS-Snn1 was “binds”.

B3: HS-Bli1 (natural protein, S. cerevisiae, UniProt P35727 1-113, looked up)
chain: MGEQNKLYYDVEKLVNSLQESFDLDCAQSVSLFTSKSRSNEAWLEELENKFKLKDDVELDDVENLRAEIDMKLNMLEDKVSYYERLYKELEEFQNEIKIKTVVNNRRQSRTPK
For the molecule B3, the binding result in the assay with GST-Snn1 and in the assay with Vab2-GST was “binds” each time.

B4: GST-Bli1 (natural protein, S. cerevisiae, UniProt P35727 1-113, looked up)
chain: MGEQNKLYYDVEKLVNSLQESFDLDCAQSVSLFTSKSRSNEAWLEELENKFKLKDDVELDDVENLRAEIDMKLNMLEDKVSYYERLYKELEEFQNEIKIKTVVNNRRQSRTPK
On to B4, for which the binding result in the assay with HS-Cnl1 is given as “binds”.
